Laboratory results reported in patent US20200131256A1.

Legend:
PACAP27 (human) = assay: cell-based or functional assay
PACAP38 (human) = assay: cell-based or functional assay
Chain of PACAP38 (human) (peptide, as listed by the source): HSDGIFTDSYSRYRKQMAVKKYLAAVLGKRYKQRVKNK

Chain of PACAP27 (human) (peptide, as listed by the source): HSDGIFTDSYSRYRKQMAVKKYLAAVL

- Percentage Tryptase Release upon addition of PACAP27 (1 uM), human mast cells, negative control antibody (PACAP27 (human)): 110%
- Percentage Tryptase Release upon addition of PACAP27 (%), negative control antibody dose 153 uM (PACAP27 (human)): 94.8%
- Percentage Tryptase Release upon addition of PACAP38 (1 uM), human mast cells, negative control antibody (PACAP38 (human)): 104%
- Percentage Tryptase Release upon addition of PACAP38 (%), negative control antibody dose 153 uM (PACAP38 (human)): 79.6%
Substance: Control IgG4 antibody
